Data on 4 molecules can be found in patent US20120178691A1, “FACTOR VIII COMPOSITIONS AND METHODS OF MAKING AND USING SAME” (Amunix Operating Inc., priority 2010, published 2012).

One data set deals with activation of factor X. The data set can be described thus: Chromogenix Coamatic Factor VIII activity assay. Format: biochemical. From the text: BDD FVIII and FVIII-XTEN fusion protein constructs pBC0114, pBC0135, pBC0136, pBC0137, pBC0145, pBC0146, and pBC0149, in various configurations, including XTEN_AE288 and AG288 inserted at the C-terminus of the FVIII BDD sequence and FVIII-XTEN fusion proteins with AE42 and AE288 inserted after residue 745 (or residue 743) and before residue 1640 (or residue 1638) of the B-domain […], were expressed in transiently transfected Freestyle 293 cells, as described above, and tested for procoagulant activity. […] The assay was performed according to manufacturer's instructions using the end-point method, which was measured spectrophotometrically at OD405 nm A standard curve was created using purified FVIII protein at concentrations of 250, 200, 150, 100, 75, 50, 37.5, 25, 12.5, 6.25, 3.125 and 1.56 mU/ml. […] The cell culture media of the FVIII-XTEN constructs were obtained as described, above, and were tested in replicates at 1:50, 1:150, and 1:450 dilutions and the activity of each was calculated in U/ml.
Using the Chromogenix Coamatic Factor VIII (Chromogenix, cat#82258563) the activity of FVIII is assessed as follows. […] The color is then read spectrophotometrically at 405 nm The generated factor Xa and thus the intensity of color is proportional to the factor VIII activity in the sample. […]

Another data set has as its system FVIII activity. Put plainly: Two-stage chromogenic FVIII activity assay of transient transfection cell culture supernatant. Format: biochemical. To be noted: HEK293 cell culture supernatant, 5-day transient transfection. How it is done:
Two FVIII-XTEN fusion proteins, FVIII-AE288 (F8X-40) and FVIII-AG288 (F8X-41), contain an AE288 XTEN or an […] XTEN, respectively, fused at the C-terminus of FVIII C2 domain. To determine if FVIII activity was retained after XTEN fusion, HEK293 cells were transfected separately with these two FVIII-XTEN fusion constructs by using polyethylenimine (PEI) in serum-free medium. At 3 or 5 days post-transfection, the cell culture supernatant was tested for FVIII activity by a two-stage chromogenic assay. Purified recombinant FVIII, calibrated against WHO international standard, was used to establish the standard curve in the chromogeinic assay. […] (Table 26).

The nature of data set [1]: Analytical size exclusion chromatography of XTEN fusion proteins. Format: physicochemical. To be noted: for Apparent MW: SEC, calibrated with globular protein standards; for Apparent Molecular Weight Factor: apparent MW relative to actual MW; for RH: hydrodynamic radius from SEC. The procedure: Size exclusion chromatography analyses were performed on fusion proteins containing various therapeutic proteins and unstructured recombinant proteins of increasing length. […] Chromatogram profiles were monitored using OD214 nm and OD280 nm Column calibration for all assays were performed using a size exclusion calibration standard from BioRad; the markers include thyroglobulin (670 kDa), bovine gamma-globulin (158 kDa), chicken ovalbumin (44 kDa), equine myoglobuin (17 kDa) and vitamin B12 (1.35 kDa). […] Based on the SEC analyses for all constructs evaluated, including a […] composition, the apparent molecular weights, the apparent molecular weight factor (expressed as the ratio of apparent molecular weight to the calculated molecular weight) and the hydrodynamic radius (RH in nm) are shown in Table 16.
A general note: Size exclusion chromatography separates by hydrodynamic size, large species first.

B1: pBC0114: base construct expressing BDD FVIII, pcDNA4-FVIII_4-…-Myc-SPATG-His, lacking XTEN insertions (protein)
chain: MQIELSTCFFLCLLRFCFSATRRYYLGAVELSWDYMQSDLGELPVDARFPPRVPKSFPFNTSVVYKKTLFVEFTDHLFNIAKPRPPWMGLLGPTIQAEVYDTVVITLKNMASHPVSLHAVGVSYWKASEGAEYDDQTSQREKEDDKVFPGGSHTYVWQVLKENGPMASDPLCLTYSYLSHVDLVKDLNSGLIGALLVCREGSLAKEKTQTLHKFILLFAVFDEGKSWHSETKNSLMQDRDAASARAWPKMHTVNGYVNRSLPGLIGCHRKSVYWHVIGMGTTPEVHSIFLEGHTFLVRNHRQASLEISPITFLTAQTLLMDLGQFLLFCHISSHQHDGMEAYVKVDSCPEEPQLRMKNNEEAEDYDDDLTDSEMDVVRFDDDNSPSFIQI
modifications: Myc and His tags
Turning to B1, the “Specific Activity” value in the data set with activation of factor X (activity (Chromogenix) per concentration (ELISA)) is 5000 IU/mg. The molecule also registered an Activity in the data set with activation of factor X (cell culture medium of transiently transfected Freestyle 293 cells, Chromogenix Coamatic Factor VIII assay) of 3.0 IU/ml.

B2: pBC 0114 (protein)
chain: MQIELSTCFFLCLLRFCFSATRRYYLGAVELSWDYMQSDLGELPVDARFPPRVPKSFPFNTSVVYKKTLFVEFTDHLFNIAKPRPPWMGLLGPTIQAEVYDTVVITLKNMASHPVSLHAVGVSYWKASEGAEYDDQTSQREKEDDKVFPGGSHTYVWQVLKENGPMASDPLCLTYSYLSHVDLVKDLNSGLIGALLVCREGSLAKEKTQTLHKFILLFAVFDEGKSWHSETKNSLMQDRDAASARAWPKMHTVNGYVNRSLPGLIGCHRKSVYWHVIGMGTTPEVHSIFLEGHTFLVRNHRQASLEISPITFLTAQTLLMDLGQFLLFCHISSHQHDGMEAYVKVDSCPEEPQLRMKNNEEAEDYDDDLTDSEMDVVRFDDDNSPSFIQI
As to B2, the figures for the FVIII activity in the data set with FVIII activity (Sample A) and in the data set on FVIII activity (Sample B) were 6.68 IU/ml and 7.61 IU/ml, respectively.

B3: AC398 (protein)
chain: AVFVTQEEAHGVLHRRRRANAFLEELRPGSLERECKEEQCSFEEAREIFKDAERTKLFWISYSDGDQCASSPCQNGGSCKDQLQSYICFCLPAFEGRNCETHKDDQLICVNENGGCEQYCSDHTGTKRSCRCHEGYSLLADGVSCTPTVEYPCGKIPILEKRNASKPQGRIVGGKVCPKGECPWQVLLLVNGAQLCGGTLINTIWVVSAAHCFDKIKNWRNLIAVLGEHDLSEHDGDEQSRRVAQVIIPSTYVPGTTNHDIALLRLHQPVVLTDHVVPLCLPERTFSERTLAFVRFSLVSGWGQLLDRGATALELMVLNVPRLMTQDCLQQSRKVGDSPNITEYMFCAGYSDGSKDSCKGDSGGPHATHYRGTWYLTGIVSWGQGCATVGHFGVYTRVSQYIEWLQKLMRSEPRPGVLLRAPFPGSPGTSESATPESGPGSEPATSGSETPGTSESATPESGPGSEPATSGSETPGTSESATPESGPGTSTEPSEGSAPGSPAGSPTSTEEGTSESATPESGPGSEPATSGSETPGTSESATPESGPGSPAGSPTSTEEGSPAGSPTSTEEGTSTEPSEGSAPGTSESATPESGPGTSESATPESGPGTSESATPESGPGSEPATSGSETPGSEPATSGSETPGSPAGSPTSTEEGTSTEPSEGSAPGTSTEPSEGSAPGSEPATSGSETPGTSESATPESGPGTSTEPSEGSAPGSSS
Take B3: in data set [1], the “Apparent MW” value was 650 kDa, the “Apparent Molecular Weight Factor” value is reported as 8.5 and the RH stood at 8.2 nm.

B4: AC404 (protein)
chain: AVFVTQEEAHGVLHRRRRANAFLEELRPGSLERECKEEQCSFEEAREIFKDAERTKLFWISYSDGDQCASSPCQNGGSCKDQLQSYICFCLPAFEGRNCETHKDDQLICVNENGGCEQYCSDHTGTKRSCRCHEGYSLLADGVSCTPTVEYPCGKIPILEKRNASKPQGRIVGGKVCPKGECPWQVLLLVNGAQLCGGTLINTIWVVSAAHCFDKIKNWRNLIAVLGEHDLSEHDGDEQSRRVAQVIIPSTYVPGTTNHDIALLRLHQPVVLTDHVVPLCLPERTFSERTLAFVRFSLVSGWGQLLDRGATALELMVLNVPRLMTQDCLQQSRKVGDSPNITEYMFCAGYSDGSKDSCKGDSGGPHATHYRGTWYLTGIVSWGQGCATVGHFGVYTRVSQYIEWLQKLMRSEPRPGVLLRAPFPGSPGSPAGSPTSTEEGTSESATPESGPGTSTEPSEGSAPGSPAGSPTSTEEGTSTEPSEGSAPGTSTEPSEGSAPGTSESATPESGPGSEPATSGSETPGSEPATSGSETPGSPAGSPTSTEEGTSESATPESGPGTSTEPSEGSAPGTSTEPSEGSAPGSPAGSPTSTEEGTSTEPSEGSAPGTSTEPSEGSAPGTSESATPESGPGTSTEPSEGSAPGTSESATPESGPGSEPATSGSETPGTSTEPSEGSAPGTSTEPSEGSAPGTSESATPESGPGTSESATPESGPGSPAGSPTSTEEGTSESATPESGPGSEPATSGSETPGTSESATPESGPGTSTEPSEGSAPGTSTEPSEGSAPGTSTEPSEGSAPGTSTEPSEGSAPGTSTEPSEGSAPGTSTEPSEGSAPGSPAGSPTSTEEGTSTEPSEGSAPGTSESATPESGPGSEPATSGSETPGTSESATPESGPGSEPATSGSETPGTSESATPESGPGTSTEPSEGSAPGTSESATPESGPGSPAGSPTSTEEGSPAGSPTSTEEGSPAGSPTSTEEGTSESATPESGPGTSTEPSEGSAPGTSESATPESGPGSEPATSGSETPGTSESATPESGPGSEPATSGSETPGTSESATPESGPGTSTEPSEGSAPGSPAGSPTSTEEGTSESATPESGPGSEPATSGSETPGTSESATPESGPGSPAGSPTSTEEGSPAGSPTSTEEGTSTEPSEGSAPGTSESATPESGPGTSESATPESGPGTSESATPESGPGSEPATSGSETPGSEPATSGSETPGSPAGSPTSTEEGTSTEPSEGSAPGTSTEPSEGSAPGSEPATSGSETPGTSESATPESGPGTSTEPSEGSAPGSSS
Regarding B4, in data set [1], the “Apparent MW” value is 1900 kDa, the “Apparent Molecular Weight Factor” value turned out to be 14.7 and the RH was found to be 10.1 nm.
